According to patent publication US20160289305A1 (INTERNATIONAL AIDS VACCINE INITIATIVE, published 2016):

Biological target: T1, YU2 gp120 (HIV-1, UniProt P35961 32-498)
T1 construct: domain: gp120
Experiment: ELISA

B1: VRC-PG-05 (antibody, V domains shown)
VH: EVQLVESGGGLVQPGGSLRLSCAASGFPFNRDWMTWVRQAPGKGLEWVANINMDGDKKDYVDSVKGRFTISRDNAKTSLYLQMNSLRAGDTAVYYCARIRQVSKYLQWYPGVFEMWGQGTMVTVSS
VL: DIVMTQSPDSLAVSLGERATIHCKSSQSVLYRPNNRNYVAWYQQKPGQPPRLLIHWASFRESGVPDRFTGSGSGTDFTLTISSLQAEDVAVYYCQQYFFLYSFGGGTKLEIN
binding result: binds
